The source of these data is patent publication US20090317401A1.

Holding throughout (assay): cell-based or functional assay
Test [1] addresses human CD160 receptor (human) (UniProt O95971).
Test [2] deals with CD16 receptor on PB-NK cells (human) (UniProt P08637).
For test [3], the target named is HLA-C expressed on K562class I+ cells (human) (UniProt P10321).
Chain of UniProt P10321 (P10321 25-366): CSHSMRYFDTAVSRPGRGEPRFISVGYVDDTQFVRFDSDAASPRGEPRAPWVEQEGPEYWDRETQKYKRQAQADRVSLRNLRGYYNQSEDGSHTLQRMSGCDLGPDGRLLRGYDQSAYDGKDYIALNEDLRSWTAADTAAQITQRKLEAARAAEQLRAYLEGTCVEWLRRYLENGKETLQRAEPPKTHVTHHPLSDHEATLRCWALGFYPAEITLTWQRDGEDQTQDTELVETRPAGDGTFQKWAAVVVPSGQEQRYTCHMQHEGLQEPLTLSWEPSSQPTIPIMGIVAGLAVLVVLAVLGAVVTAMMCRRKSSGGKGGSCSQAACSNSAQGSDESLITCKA

Chain of UniProt O95971 (O95971 25-159): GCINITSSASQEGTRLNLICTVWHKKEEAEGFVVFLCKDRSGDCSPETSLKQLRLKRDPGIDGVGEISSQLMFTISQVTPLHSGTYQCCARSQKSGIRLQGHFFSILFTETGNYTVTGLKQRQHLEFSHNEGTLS
Chain of UniProt P08637 (P08637 17-254): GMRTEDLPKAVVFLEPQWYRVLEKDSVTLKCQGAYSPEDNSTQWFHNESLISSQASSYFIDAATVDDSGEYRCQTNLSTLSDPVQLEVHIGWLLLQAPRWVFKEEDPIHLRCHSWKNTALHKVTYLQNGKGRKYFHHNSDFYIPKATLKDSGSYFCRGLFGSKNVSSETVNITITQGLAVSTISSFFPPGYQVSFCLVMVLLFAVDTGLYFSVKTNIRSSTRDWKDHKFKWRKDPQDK

As to “HLA-C expressed on K562class I+ cells (from UniProt P10321 25-366) (ligand)”, in test [1], the IFN-γ production by PB-NK co-cultured 16 h with K562Class-I+ (Cytometric Bead Array) is 29400 pg/mL, the IFN-γ production by PB-NK co-cultured with K562Class-I+ in the presence of IgG1 isotype control worked out at 23100 pg/mL, the IFN-γ production by PB-NK co-cultured with K562Class-I+ in the presence of IgG2a isotype control came out at 16100 pg/mL and the IL-6 production by PB-NK co-cultured 16 h with K562Class-I+ (Cytometric Bead Array) is 620 pg/mL. In test [1], the IL-6 production by PB-NK co-cultured with K562Class-I+ in the presence of IgG1 isotype control was 414 pg/mL, the IL-6 production by PB-NK co-cultured with K562Class-I+ in the presence of IgG2a isotype control worked out at 478 pg/mL, the TNF-α production by PB-NK co-cultured 16 h with K562Class-I+ (Cytometric Bead Array) turned out to be 334 pg/mL and the TNF-α production by PB-NK co-cultured with K562Class-I+ in the presence of IgG1 isotype control is 200 pg/mL. For the same substance, in test [1], the TNF-α production by PB-NK co-cultured with K562Class-I+ in the presence of IgG2a isotype control is 215 pg/mL.
With “3G8 anti-CD16 mAb (IgG1; Beckman-Coulter) (antibody)”, the IFN-γ production by PB-NK after mAb cross-linking of CD16, against CD160 engagement in test [2] is 30 fold less.
Turning to “W6/32 anti-HLA mAb (IgG2a; ATCC HB-95) (antibody)”, in test [3], the IFN-γ production by PB-NK co-cultured with K562Class-I+ in the presence of blocking anti-HLA-C mAb turned out to be 1150 pg/mL, the IL-6 production by PB-NK co-cultured with K562Class-I+ in the presence of blocking anti-HLA-C mAb turned out to be 370 pg/mL and the TNF-α production by PB-NK co-cultured with K562Class-I+ in the presence of blocking anti-HLA-C mAb stood at 64 pg/mL.
For the substance “HLA-Cw5 on K562-HLA-Cw5 transfectants (ligand)”, in test [1], the IFN-γ production by PB-NK co-cultured 16 h with K562-Cw5 (Cytometric Bead Array) stood at 20100 pg/mL, the IL-6 production by PB-NK co-cultured 16 h with K562-Cw5 (Cytometric Bead Array) turned out to be 689 pg/mL and the TNF-α production by PB-NK co-cultured 16 h with K562-Cw5 (Cytometric Bead Array) was 389 pg/mL.
